Source: US10669350B2, “Antigen-binding constructs that bind to and inhibit catalase and/or superoxide dismutase as well as pharmaceutical compositions containing them for tumor therapy” (priority 2015, dated 2020)
Entries after “also recorded” stand apart in the source; their conditions may differ.

Assays:
[1] = system: MKN-45 gastric carcinoma cells; experiment: Standard preparation for autocrine ROS-controlled apoptosis induction in tumor cells (percentage of apoptotic cells); format: cell-based, human; settings: for apoptosis induction in MKN-45 cells: increasing concentrations, 3-4 hours at 37° C., 5% CO2
Protocol: (§1) The experiments shown in FIG. 13-24 were carried out with a standard preparation for the apoptosis induction that is based on the method performed in Heinzelmann and Bauer 2010. The tumor cells used were taken from an optimally growing semi-sealed culture, centrifuged and placed in fresh medium. The test was performed in 96-well cell culture plates with 12 500 MKN-45 cells/100 μl medium or 10 000 SHEP cells/100 μl medium. MKN-45 cells grow in suspension, SHEP cells are adherent. The tests with SHEP cells were started as soon as the cells had grown on. By adding increasing concentrations of single domain VHH fragments that either inhibit catalase or SOD the protection of the tumor cells from their own ROS signaling was annulled so that based on the cell-owned extracellular superoxide anion production the NO/peroxynitrite signal path and the HOCl path (with MKN-45 cells) or in case of the SHEP cells only the NO/peroxynitrite path could start when the cells were incubated at 37° C. The analysis of the signal paths was carried out by the application of inhibitors of the NADPH oxidase (AEBSF), the HOCl scavenger taurine, the peroxynitrite scavenger FeTPPS and the singlet oxygen scavenger histidine. In some experiments for comparison instead of the single domain VHH fragments either recombinant Fab fragments or monoclonal antibodies were applied. This is indicated in the respective illustrations.
Double preparations were examined at the times shown in the text by means of phase contrast reverse microscopy for the percentage of apoptotic cells. Here, the classical apoptosis criteria described and documented in Heinzelmann and Bauer 2010 such as condensation of the nucleus, fragmentation of the nucleus, and membrane blebbing were used. Per single preparation at least 250 randomly selected cells were examined for the presence of apoptosis features. […]

human catalase [2] = biological target: T1, human catalase (Homo sapiens, UniProt P04040); experiment: ELISA selection of clones binding to human catalase
T1 sequence (P04040 2-527 limits assumed): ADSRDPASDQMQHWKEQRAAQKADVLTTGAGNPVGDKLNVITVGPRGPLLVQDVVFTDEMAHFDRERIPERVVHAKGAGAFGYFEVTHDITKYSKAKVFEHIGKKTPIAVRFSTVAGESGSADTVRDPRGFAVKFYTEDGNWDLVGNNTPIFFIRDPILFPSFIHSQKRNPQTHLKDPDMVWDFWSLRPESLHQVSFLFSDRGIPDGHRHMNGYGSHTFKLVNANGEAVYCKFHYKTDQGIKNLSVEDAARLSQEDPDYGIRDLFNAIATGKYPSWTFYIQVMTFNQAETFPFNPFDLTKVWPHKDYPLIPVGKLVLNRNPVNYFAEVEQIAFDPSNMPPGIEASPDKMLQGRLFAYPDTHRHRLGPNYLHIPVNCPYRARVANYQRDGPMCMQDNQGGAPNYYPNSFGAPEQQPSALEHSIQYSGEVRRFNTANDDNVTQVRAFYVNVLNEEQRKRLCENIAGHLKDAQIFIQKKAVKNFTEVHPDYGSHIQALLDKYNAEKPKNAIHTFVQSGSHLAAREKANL
Text: […] […] In a second run, by employing the cell culture system described by Heinzelmann and Bauer (Heinzelmann S. and Bauer G. Multiple protective functions of catalase against intercellular apoptosis-inducing ROS signaling of human tumor cells, Biol. Chem. 391, 675-693, 2010) it was checked which one of the single domain VHH fragments binding to catalase actually results in an inhibition of the catalase, what is expressed as ROS-dependent apoptosis induction in the cells. […] The clones underlying the single domain VHH fragments were sequenced by standard methods and the amino acid sequence was determined therefrom.

human catalase [3] = biological target: T1, human catalase; experiment: Check for inhibition (neutralization) of catalase, expressed as ROS-dependent apoptosis induction in cell culture system; format: cell-based; set-up: catalase-neutralizing single domain VHH fragments only neutralize the membranous catalase of tumor cells; endogenous in cells; host or cells: MKN-45 human gastric carcinoma cells
Text: For the determination of the neutralizing effect of single domain VHH or Fab fragments directed against catalase a test system is suitable that is based on the apoptosis-inducing effect of H2O2 and the degradation of H2O2 by catalase. Here, as the cellular test system both non-malignant and malignant cells can be employed. It is only required that apoptosis induction is quantitatively determinable in the selected cell system. As the H2O2 source, H2O2-generating glucose oxidase (GOX) is preferred over the direct addition of H2O2, because the continuous production of H2O2 by GOX (by using glucose from the culture medium of the cells) allows a very precise adjustment of the H2O2 flux. The test system is based on the inhibition of the apoptosis induction by GOX mediated by catalase and the restoration of the apoptosis induction by catalase-neutralizing single domain VHH or Fab fragments. […] For that, in general depending on the cell system, GOX concentrations between 0.1 and 40 mU/ml are required. In a second step, the concentration of human catalase is determined that is just sufficient to abolish the effect achieved by GOX. […] After successful determination of the suitable concentrations of GOX and catalase then the actual experiment for the determination of the catalase-neutralizing effect of single domain VHH or Fab fragments can be performed. For that, the selected catalase concentration is pre-incubated for 20 minutes with selected concentrations of the single domain VHH or Fab fragments to be tested. Subsequently, said mixture together with the concentration of GOX determined to be suitable is added to the cells and apoptosis induction is measured. A reliable neutralizing effect of the single domain VHH or Fab fragments is obtained if the inhibiting effect of the catalase on the GOX-mediated apoptosis induction was abolished by at least 90%, i.e. if 90% of the apoptosis induction value is achieved that is shown in control preparations without addition of catalase. If there is achieved an abolition of the inhibiting effect of catalase of at least 50% there may be assumed a significant inhibiting effect of the tested single domain VHH or Fab fragment. […]
[…] In a second run, by employing the cell culture system described by Heinzelmann and Bauer (Heinzelmann S. and Bauer G. Multiple protective functions of catalase against intercellular apoptosis-inducing ROS signaling of human tumor cells, Biol. Chem. 391, 675-693, 2010) it was checked which one of the single domain VHH fragments binding to catalase actually results in an inhibition of the catalase, what is expressed as ROS-dependent apoptosis induction in the cells. […] The clones underlying the single domain VHH fragments were sequenced by standard methods and the amino acid sequence was determined therefrom.

[4] = system: human neuroblastoma line SHEP; experiment: Standard preparation for apoptosis induction in SHEP cells (percentage of apoptotic cells); format: cell-based
Protocol: as §1
Double preparations were examined at the times shown in the text by means of phase contrast reverse microscopy for the percentage of apoptotic cells. Here, the classical apoptosis criteria described and documented in Heinzelmann and Bauer 2010 such as condensation of the nucleus, fragmentation of the nucleus, and membrane blebbing were used. Per single preparation at least 250 randomly selected cells were examined for the presence of apoptosis features.
10 000 cells of the human neuroblastoma line SHEP per 100 μl medium were mixed with the given concentrations of the catalase-neutralizing single domain VHH fragment aCATcb0972, the SOD-neutralizing single domain VHH fragment aSOD0989, the SOD-binding but not neutralizing single domain VHH fragment aSODcb991 and the hybrid molecule aCATaSOD and incubated for 5 hours at 37° C., 5% CO2, before percentages of apoptotic cells were determined.
10 000 cells of the human neuroblastoma line SHEP per 100 μl medium were mixed with the given concentrations of the SOD-neutralizing single domain VHH fragment aSOD0989. Parallel preparations received 20 μM or 100 μM of the NO donor sodium nitroprusside or were incubated without a further additive. After 5 hours at 37° C., 5% CO2 the percentages of apoptotic cells were determined.

[5] = Table 2, FIG. 20 experiment, 3.5 hours

In the case of `CC(=O)O[C@H]1C(=O)[C@@]2(C)[C@H]([C@H](OC(=O)c3ccccc3)[C@]3(O)C[C@H](OC(=O)[C@H](O)[C@@H](NC(=O)c4ccccc4)c4ccccc4)C(C)=C1C3(C)C)[C@]1(OC(C)=O)CO[C@@H]1C[C@@H]2O` [taxol, reference compound], the “displacement of the required taxol concentration by neutralizing single domain VHH fragments” value ([1]; 4 hours) is reported as “less than a thousandth”, the “optimum effect concentration of taxol alone” value ([1]; 4 hours) is reported as 1100 ng/mL and the “apoptosis induction in MKN-45 cells” value [1] is reported as “induces apoptosis in the tumor cells in a concentration-dependent manner”.

B1: monoclonal aCAT: neutralizing conventional monoclonal antibody against catalase (Sigma) as a control (protein)
VHH: MAQVQLVESGGGLVQAGGSLRLSCAASERTFNTYGMGWFRQAPGKEREFVATISWSGDSTYYADSVKGRFTISRDNAKNTMYLQMNSLKPEDTAVYYCNANSEYGDSYWGQGTQVTVSSKKKHHHHHH
B1 was tested, and the “optimum effect concentration (text, FIG. 20)” value ([1]; 3.5 hours) was 111 ng/mL, the “relation to opt. conc. single domain Fab” value ([1]; Table 1, concentration basis, versus the corresponding single domain VHH) was 277 500 and the optimum conc. ([1]; Table 1, concentration necessary for optimum apoptosis induction, taken from FIGS. 13A, 13B, 15A, 15B, 20) was 111 ng/mL. For the same molecule, the “relation (molar basis)” value ([1]; Table 1, versus the corresponding single domain VHH) was 46 250, the optimum conc. [1, 5] was 111 ng/mL and the “relation to opt. conc. hybrid Fab” value ([1]; Table 2, concentration basis, versus hybrid aCATaSOD) was 4.6 × 10^8. For the same molecule, the “relation (molar basis)” value ([1]; Table 2, versus hybrid aCATaSOD) was 1.54 × 10^8.

B2: aCATcb0973: single domain VHH fragment binding to human catalase, but not neutralizing; SEQ ID NO: 11 (protein)
VHH: MAEVQLVESGGGLVQPGGSLRLSCAVSGFIFNTYSMRWGRQAPGKGLEWVSSISTGGYSTYADSVKGRFTISRDNAKNLVYLQMNSLKPEDTAVYYCGWGAFVRGERPQGQGTQVTVSSKKKHHHHHH
modifications: catalase binding
For B2, the “binding to human catalase” value (human catalase [2]) was “bind to human catalase” and the “neutralization (inhibition) of human catalase” value (“neutralization (inhibition)” for short) (human catalase [3]) was “do not neutralize it”.

B3: aCATaSOD: bispecific hybrid single domain VHH fragment of cb 0972 and cb 0989 connected via a linker; SEQ ID NO: 17 (protein)
VHH: MAQVQLVESGGGLVQAGGSLRLSCAASERTFNTYGMGWFRQAPGKEREFVATISWSGDSTYYADSVKGRFTISRDNAKNTMYLQMNSLKPEDTAVYYCNANSEYGDSYWGQGTQVTVSSGGGGSGGGGSGGGGSAQVQLVESGGGLVQSGGSLTLSCTASGFTISNYPMTWVRQAPGKGLEWVSRINSGGDRTLYADSVKGRFTVSRDNARNTMYLQMNNLKPEDTGLYFCADSGAGWRYWGQGTQVTVSSKKKHHHHHH
modifications: bispecific
With B3 the “efficacy compared with single domain VHH fragments directed against one target structure” value ([4]; 5 hours) was “much more effective”, the “apoptosis induction in SHEP cells” value ([4]; 5 hours at 37° C., 5% CO2) was “can induce concentration-dependent apoptosis” and the “apoptosis induction after siRNA-mediated knockdown of FAS receptor or caspase-8” value ([1]; 24 nM siRNA, four hours) was “does not require the FAS receptor and its downstream caspase-8; also recorded: prevents the supra-optimum drop of the apoptosis induction curve”. For the same molecule, the “apoptosis induction after siRNA-mediated knockdown of NOX1, iNOS2 or caspase-9” value ([1]; 24 nM siRNA, four hours) was “completely prevents the apoptosis induction”, the “apoptosis induction in the presence of peroxynitrite scavenger FeTPPS” value ([1]; 25 μM FeTPPS) was “complete inhibition by FeTPPS” and the “apoptosis induction in the presence of NOX1 inhibitor AEBSF” value ([1]; 100 μM AEBSF) was “completely prevented”. The “apoptosis induction in the presence of singlet oxygen scavenger histidine” value ([1]; 2 mM histidine) was “attenuating effect on the right-side drop of the optimum curve”, the “apoptosis induction in the presence of HOCl scavenger taurine” value ([1]; 50 mM taurine) was “no inhibition by taurine” and the optimum conc. [1, 5] was 2.4e-07 ng/mL. For the same molecule, the “apoptosis induction in MKN-45 cells” value [1] was “gradually superior over the reverse arrangement” and the “ROS signaling path induced” value ([1]; inhibitor analysis) was “exclusively the NO/peroxynitrite path”.

B4: aCATcb0975: single domain VHH fragment binding to human catalase, but not neutralizing; SEQ ID NO: 13 (protein)
VHH: MAQVQLVESGGGLVQPGGSLRLSCAASASIFSIYVMAWYRQAPGKQRELVATVTSGGATNYANSVKGRFTISRDNAKNTMDLQMNSLKPEDTAVYYCNAEDYYDYGLSRSKIYWGQGTQVTVSSKKKHHHHHH
modifications: catalase binding
B4 was tested, and the “binding to human catalase” value (human catalase [2]) was “bind to human catalase” and the “neutralization (inhibition)” value (human catalase [3]) was “do not neutralize it”.

B5: aCATcb0974: single domain VHH fragment that binds to and neutralizes human catalase; SEQ ID NO: 12 (protein)
VHH: MAQVQLVESGGGLVQPGGSLRLSCAASGSIFSIASMGWYRQAPGKQRDLVATITSDGSTKYADSVKGRFTISRDNAKNTMYLQMNSVKPEDAAVYYCNADADDLEPGSYDYDYWGQGTQVTVSSKKKHHHHHH
modifications: catalase binding
In the case of B5, the “binding to human catalase” value (human catalase [2]) is reported as “bind to human catalase” and the “neutralization (inhibition)” value (human catalase [3]) is reported as “neutralize it”.
